Experimental data taken from IntAct's records for PubMed 23803857.

B1: C-type lectin domain family 2 member A (Homo sapiens), Q6UVW9 (parent)
chain: MINPELRDGRADGFIHRIVPKLIQNWKIGLMCFLSIIITTVCIIMIATWSKHAKPVACSGDWLGVRDKCFYFSDDTRNWTASKIFCSLQKAELAQIDTQEDMEFLKRYAGTDMHWIGLSRKQGDSWKWTNGTTFNGWFEIIGNGSFAFLSADGVHSSRGFIDIKWICSKPKYFL
partner: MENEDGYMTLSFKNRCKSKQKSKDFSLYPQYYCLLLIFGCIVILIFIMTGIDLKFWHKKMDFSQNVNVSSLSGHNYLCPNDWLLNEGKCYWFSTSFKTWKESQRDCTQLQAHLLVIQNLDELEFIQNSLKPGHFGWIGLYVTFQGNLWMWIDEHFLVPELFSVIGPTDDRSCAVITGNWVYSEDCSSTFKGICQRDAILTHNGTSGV

Variants of: B1
Conditions: with klrf2_human KLRF2, D3W0D1

effect of a mutation on the interaction | Variant
decreasing interaction strength | D162A
with no effect | D152A
decreasing interaction strength | H155A
with no effect | T111A;D112A;M113A
decreasing interaction strength | F148A
decreasing interaction strength | F160A;I161A
decreasing interaction strength | S157A;R158A
